The data set is described as follows: label from the status in PepcDB records.
For the sequence “MLHKRASEANDKNDNTIIGSDLASSKKRRIDFTESSSDKSSSILASGSSRGFHGDSVVQQIDMAFGNSNRQEIDEDLHSRQLAVYGRETMRRLFASNVLISGMHGLGAEIAKNLILAGVKSVTLHDERVVELWDLSSNFVFSEDDVGKNRADASVQKLQDLNNAVVVSSLTKSLNKEDLSGFQVVVFSDISMERAIEFDDYCHSHQPPIAFVKADVRGLFGSVFCDFGPEFAVLDVDGEEPHTGIIASISNENQAFISCVDDERLEFEDGDLVVFSEVEGMTELNDGKPRKIKSTRPYSFTLDEDTTNYGTYVKGGIVTQVKQPKLLNFKPLREALKDPGDFLFSDFSKFDRPPLLHLAFQALDHFKAEAGRFPVAGSEEDAQKLISIATAINTGQGDLKVENVDQKLLRHFSFGAKAVLNPMAAMFGGIVGQEVVKACSGKFHPLFQFFYFDSVESLPSEPVDSSDFAPRNSRYDAQISVFGAKFQKKLEDAKVFTVGSGALGCEFLKNLALMGVSCGSQGKLTVTDDDIIEKSNLSRQFLFRDWNIGQAKSTVAASAAAVINPRFNIEALQNRVGAETENVFDDAFWENLTVVVNALDNVNARLYVDSRCLYFQKPLLESGTLGTKCNTQSVIPHLTENYGASRDPPEKQAPMCTVHSFPHNIDHCLTWARSEFEGLLEKTPAEVNAYLSSPVEYTNSMMSAGDAQARDTLERIVECLEKEKCETFQDCLTWARLRFEDYFVNRVKQLIYTFPEDAATSTGAPFWSAPKRFPRPLQYSSSDPSLLNFITATAILRAETFGIPIPEWTKNPKEAAEAVDRVIVPDFEPRQDAKIVTDEKATTLTTASVDDAAVIDDLIAKIDQCRHNLSPDFRMKPIQFEKDDDTNYHMDVIAGLANMRARNYSIPEVDKLKAKFIAGRIIPAIATSTAMATGLVCLELYKVLDGGHKVEAYRNTFANLALPLFSMAEPLPPKVVKHRDMAWTVWDRWVLKGNPTLREVLQWLEDKGLSAYSISCGSCLLFNSMFTRHKERMDKKVVDLARDVAKVELPPYRNHLDVVVACEDEDDNDVDIPLVSIYFR”, the protein production entry is on record as “failed”.
With “MLHLKVQFLDDSQKIFVVDQKSSGKALFNLSCSHLNLAEKEYFGLEFCSHSGNNVWLELLKPITKQVKNPKEIVFKFMVK”, the protein production result is given as “failed”.
Turning to “MLHWISLLCAGCLEMAGVALMNQYAKEKSVKWVLLIIVGFAASFSLLSYAMETTPMGTAYAVWTGIGTAGGALIGILFYKEQKDAKRIFFIALILCSAVGLKILS”, the protein production entry is recorded as “failed”.
For “MLIFLISSAIVLLADLLITYQIYREIKVRREVSGNQGGFASVIIPVRGLDVNAEENLKSLLSQDYSAYEVIYVVDDENDPIVPILRKYNVKVVVSNKNCDICSGKINAQLEGLKHARGDIIVFADSDTWFPKYWLKELVSPLSNYVATTVFSWAKPVRLTIGNIIRAGFWTLGFESQAVGGTFLWGGSMAFKREFFDERVIQELKTQWCDDCTLTRIAKERGKLGFVFNAMPLNFYDETQLITWSKRQLITVWRYSRRGVNGFIIVAIFMLAFLFLIPFNVFAITPFIFWVFKNILRSYKIGLSNSIIPSLASILAIFYSLFLIALTLREKNIIWRGKIYKV” the value was “failed”; for “MLIKLTGGTVYDPANGIDGQVRNLFIRDGRIVHSLNGATPDQEYDLRGKVVMAGAIDMHTHIGGGKVT”, “failed”.
Next, “MLIKQTDYFRIYRVINSLLISQNADPASASMYFSTFGAFILQQHYKVKAVPKGGLAAYNLGGTVLLFADHREDGYVTGAGENFHCWVEADGWAIDFMAPAFSEGTDALAVPAKMFQRPLSAMAASINDLGQSGDFFYRSEPEATARRFADWHKQAMIGDMASVAANWFRKSPKQMAASLSVTDRDGKARTVPLTGEMLTGAW”: “not failed”; “MLINLGQRLENLRTLVGFLKAARAESLDRVIAIADSLNKTEIAAQSRRWMLSHPAVAQLAAENYAPARPALEALNQLPTGTLGQAYASLLLGQNLSPDDLQPAKPATNADEYIVERLRVTHDIAHVITGFGTDPASELGLQAFNLRQNRTPLAVLLIAGGLLKTIKEGRDPAPILRQVARGIELADKAELLVAQRWEDHWDWPLEQWRQVLNLPV”: “failed”; “MLITISDIAWGIALSIWVAIVVLYISKLISKKFGAYVTRKAIHMLGGGIVAVLSPFVFNSPLVPIITSYLIMAYLITIRVLRKEMSWFMDKENLGEVFFAFSFGTVLLVMFILDPNYWTSTDLIYVAVLPLIFMSFGDGITGIIRNFVYKRRVKGLWGSMGMLIFCATVGYFVLNIPGLIAGILATVAELLPYIDDNISVPFLSFLFLYLFVRVL”: “failed”.
Regarding “MLITVYCVRRDLSEVTFSLQVSPDFELRNFKVLCEAESRVPVEEIQIIHMERLLIEDHCSLGSYGLKDGDIVVLLQKDNVGPRAPGRAPNQPRVD”, the protein production entry was “failed”.
For “MLKAFRKNQHPVAIPSTLPDGSAWPRISIVTPSYNNAKYIEETIISVLEQGYPDVEHIIVDGASKDGTAAILDRYRGHVARIIQEPDTGQSNAINKGMRLATGEIVTWLNSDDLLAPGALAAVAMAFHMSGADMVAGGCQLYRNGGYLGTHLTSCADGTLPAEEISDLYGGWQTGKFFYQPEVMFTRDLWQRAGGQVREDLHYCMDVEMWLRFASCGARLHVIGAPVAMFRLHEEQKTNNPDASPDEYIPVANAWRTTHGLPPITRTTLPPPPPPLKVAFVNDIGFQYGAGIAHQRLFTAVSSAGHTVRGWATGFQSPRDVFEATAARIISEIEAFEPDVVVCGNLHCTIADSDMLVRLTDRWPTCFCLHDLWLLTGHCPHPGFLDCVRHLAGCDHTCPSPDTYPTIAAGDIRKAWDAKREVMARDTFLALANSNWTRAQHDGCTTPGHEARLLRLGCDESIFHPGDRLEARRQLGLDMDAFVVLMPMVDFSSPFKGSVEGLEALSGAGLENLQVICFGVVEQEMIARFPILTALGYLHDPEAVATAYRAADVVVSFSHAETFGQTLMEAACCGIPSLAYRCTGLPDAVVDGVSGFLVDETPDALITRLHQLHADANLRASLGTWAALYARNSRCLQAEYHSFHTNLEEAGLLAPGRLGKNIFFAHTEAHEAEPSIPVSDPRPGSAFKNWLRRELPTPVWMALRRVYRGTKSRLGMHP” the value was “failed”; for “MLKAYRYRIYPTKAQEEFFEKAFGCCRFVWNKMLEEKLEALKQGKKVPRITPARYKKEYPFLREVDSLALANVQMKQEKAFKDFFKNPKHFGIPKFKRKKDKQSYTTNNQQTKSGNETIRVDFEKGLLYLPKVKSGIKAVFHREFEGKIKSATVVKTKAGRYYVSILVDVQDPRNKEVNRIFENEITKRENFICGIDTGLISFVTIANDTGISKIEYPKYLIKAEKRLKRLQRQLSRKKEGSKNWEKARERLAKEYEYVKNSREDFLHKISKTIIDENQVVVVESLNVKGLSRTRLSKHILDSSWSKFLRYLKYKADWYGRKVIEADRSFPSSKMCSRCGYINKELKLKDRVWKCPKCKAVHDRDENAAKNLKNYGIAYIRNQ”, “failed”.
For the sequence “MLKDNLKEWFGFDEFKEGQEEIIDSVLHGRHTLGILPTGSGKSLCYQLPTYILEKPTLIISPLISLMDDQVMQMKLKGETHVACVHSGMDEVEKRDNIKRLSKSRFIYLSPEYILQPHNFKYIAHINFGLIVLDEAHCLSEWGYDFRPHYALVGKIIHHFNSATVLALTATAPPQLETDLSHILSLKLNVVQKSMNRENISLQHYNFNDDEGKIEWLLPFLSNSGPTIIYVSSKKRCLELAQMIYDSGYLTGIYHGDLSYQERQTVQQQFFNNDIPVIVATSAFGMGINKKDIRTVIHFHLSSSPSNYLQEIGRAGRDGKQSQAISLFQPDDSFILETLLFTDIITDDDITMFETGNHLPDEKEKILSTLNIQFTFSQLKDIFHQSYQRKRLGYMRMMGYTNLDQCRRKYLLEFFGEHPQSPKQCCDQDSRLEPIQILNRKKVKRKLSFNEKLYNLFET”, the protein production result is reported as “failed”.
Next, “MLKEIKRRNRMKNKRLIGIIAALAVLVAGSLIYSSMNKSEAQNNKDEKKITKIGVLQFVSHPSLDLIYKGIQDGLAEEGYKDDQVKIDFMNSEGDQSKVATMSKQLVANGNDLVVGIATPAAQGLASATKDLPVIMAAITDPIGANLVKDLKKPGGNVTGVSDHNPAQQQVELIKALTPNVKTIGALYSSSEDNSKTQVEEFKAYAEKAGLTVETFAVPSTNEIASTVTVMTSKVDAIWVPIDNTIASGFPTVVSSNQSSKKPIYPSATAMVEVGGLASVVIDQHDLGVATGKMIVQVLKGAKPADTPVNVFSTGKSVINKKIAQELGITIPESVLKEAGQVIE”: “not failed”; “MLKERAGAVSAGLRALDLALVAAAFGLALALRAAVDVPAVPPLLPAGRHLAWLAVALALWPAAAGAAGVYGQYRTRSRREEILRLARAVGLLALGVAAASFLGRDRDLSRLLLLGWNGIALVLLAGSRVAVRTLAHEARRRGHNTRAFAVVGSGPMARAMRQRLLARPEWGFTFAGFVLEEGAPRRGIPGPVLGRVDELAAVLERYVVDLVVFAVPRDRLPGMEAAVAACQEQGVVAKIGLEPFPPRHGRLTVEDLDGIPVLSYASAPQDALPLLAKRAIDVVASALALVVLSPLLAAVALAVRLDSPGPVLFRQRRVGLSGRTFTLYKFRSMRAGAEAEQARLADRNEMDGPVFKLRDDPRVTRVGKVLRRTSLDELPQLWNVLRGEMSLVGPRPPLPDEVRRYERWQRRRLSVKPGLTCTWQVSGRSEVGFGRWMQLDLDYIDRWSLWQDVRIVLRTIPAVLLGRGAR”: “failed”; “MLKERLKAFFSADSVFTLIFALFFLTSFKKPLTQVLLIVLMVFLFFRCYFQASLKETFAINHLKTMSFKWLTLAFLGVFLSIFPNMFNMHDSQTFRYNLFALNMSLTYACGALCLLFASCLRIKLNQKILFYSMAVANFINGLLSLVQKIYFNMPRAQGFSTVKEYVVLVSVSILGCYIYALYSHNQKEKLFFTLSVFVGFLVVILSATRSATIAFVITFLILSCFILYAKKSLKPLGYMVVVSLILSALYVGSNALEKKGAIEQSRVQNQSFEEDLKRYAKKDADSSIGWRLERWKEALTVLRLRPFFGMAASEKCQRLEEILSLSKSYRAKDLILCYERYDNQIIHILATRGIIGFLIWLFFLLVIVKIFWSGIKQNSLISFFILMTLAFYLIFGIGFDPFDFFITGSFFVGMIMMAVFLKKDKSAF”: “failed”.
For the sequence “MLKFNKVFMYITASALSVSLWTCTSFAQQNKTGVTTASMLNMRENPSTSTKIIDQIPNGTKVDIIETSNGWYKISYNGKTGWVYGSYVKVTETPKLTVTDETILATLNKGSTGNSSTNSSTNNSAVNNSSSQVVDETIQKPAQNAASGENTENTVVKTGIVKASALNVRQGPGTSYSIINQLSNGAKVNIIKEESGWYQIKLANGSTGWVSGTYVNVNTTIASRGGLSENSAPAASNNSDVSGVRQQVVEYAKKFLGVKYVYGGNSPSQGFDCSGFVKYVFSNFGINLERVAASQAKQGTWVSKDQLLPGDLVFFDTDGGHNYINHSGIYIGDGKFIHASSGSGKKSVVISDLTSGFYANTYMTARRVLN”, the protein production result is listed as “failed”.
For the sequence “MLKGKVALVTGASRGIGRAIAKRLANDGALVAIHYGNRKEEAEETVYEIQSNGGSAFSIGANLESLHGVEALYSSLDNELQNRTGSTKFDILINNAGIGPGAFIEETTEQFFDRMVSVNAKAPFFIIQQALSRLRDNSRIINISSAATRISLPDFIAYSMTKGAINTMTFTLAKQLGARGITVNAILPGFVKTDMNAELLSDPMMKQYATTISAFNRLGEVEDIADTAAFLASPDSRWVTGQLIDVSGGSCL”, the protein production result is listed as “not failed”.
For “MLKGKYTKIEKVNGVEREYLITDKYGITIGRIFIVDLNKDNRFCMFRMKIYKQGKSINTYIKEILSVFMEFLFKSNDINKVNIIVDEEVSTQPFVELGFAFEGIINKSIIEKNVLKDEFLFGMDYKNYNSDRINVFKLYGKSITLKVLTPEDAENMLQYYIKNKEHLKPFEPEREESFYTFEAQKQMLIENYKQFINGEGTNFGIYKDAKLIGKIQISGTIYGVFKSAIIGYSIDKDYQGKGYMKDALRVAEAYAFNVMNLHRIEASALVDNLRSQNVLIGCGFEKLGINKNYLFINGRWQDHITFYKTNNN” the value was “failed”.
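Further: failed if final PepcDB status was selected cloned or expressed and not failed if soluble or beyond.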
